Publication PMC13544220, “Glycemic and bodyweight effects of GIPR coding variation reflect differences in surface expression and intrinsic functional impairment” (Science Advances, 2026)

Columns and labels:
Format in all cases: cell-based, human
[1] = system: wild-type and variant SNAP-GIPR; test: cADDis cAMP imaging in AD293 cells, ensemble, expression-matched and per decile; conditions: Fig S3F, cADDis, mean
Method: AD293 cells were reverse transfected with the GIPR variant or wild-type plasmids using Lipofectamine 2000 and cotransduced with the cADDis Green Up BacMam (10 μl per well, Montana Molecular, USA), in 96-well, poly-D-lysine–coated microplates. All variants were tested in parallel on each occasion to control for transfection efficiency differences between experiments. After 24 hours, cells were labeled using 500 nM SNAP-Surface Alexa Fluor 647 for 10 min at room temperature. Cells were washed three times and then imaged in KRBH buffer containing 6 mM glucose and 0.1% BSA. Imaging was performed at 37°C by wide-field microscopy using the same microscope as in the “Assessment of surface GIPR expression by SNAP-tag labeling in cell lines” section, with 9 FOVs for both cADDis and SNAP-Surface fluorescence acquired from each well using a 10X, 0.45 NA air objective. […] Flat-field correction was performed using BaSiC ([72]), drift correction was performed using SIFT, and a maximum intensity projection of the cADDis channel was used to segment individual cells. cAMP responses were determined by quantifying the cADDis fluorescence intensity for each cell at each time point. Nonviable cells or noncell objects were excluded according to criteria for allowable cell IBMX/FSK responses. […] The cADDis mask was then used to quantify the SNAP-Surface signal from each cell. Wild-type SNAP-Surface readings were split into deciles, and these deciles were subsequently used to categorize variant-transfected cells to match against the wild type. After trimming the top and bottom deciles, the mean was taken of each decile mean for surface expression level or cAMP response, which achieved matched expression levels by effectively applying an inverse weighting to counteract differences in cell number in each decile for different variants. Ensemble expression levels or cAMP responses were calculated without regard to deciles. Variant cADDis responses were also analyzed within their own surface expression deciles.

[2] = system: wild-type and variant SNAP-GIPR; test: Constitutive and agonist-mediated internalization, reversible SNAP-tag labelling, INS-1 cells; set-up: key to Internalisation, GIP-only / Internalisation, Vehicle / Internalisation, +GIP: % internalization: residual fluorescence after Mesna vs pre-Mesna; conditions: Mean
Method: (§1) Twenty-four hours before the experiment, AD293 or INS-1 cells were reverse transfected with GIPR variant or wild-type plasmids using Lipofectamine 2000 in 96-well, clear-bottom, black microplates precoated with poly-D-lysine. All variants were tested in parallel on each occasion to control for transfection efficiency differences between experiments. […] Media were then removed, cells washed with PBS and then placed in TNE buffer (pH 8.6) for imaging. […] After 10 min, the well was reimaged again to detect remaining fluorescence from internalized GIPR. Images were analyzed as in the “Assessment of surface GIPR expression by SNAP-tag labeling in cell lines” section, with the residual specific fluorescence after Mesna treatment expressed relative to the pre-Mesna value to establish percentage internalization.

[3] = system: wild-type and variant SNAP-GIPR; test: Single-concentration GIP cAMP response by HTRF in AD293 cells; conditions: Fig S3F, HTRF, mean;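 also: ratio to experiment-wide average response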
Method: (§2) All variants were tested in parallel on each occasion to control for transfection efficiency differences between experiments.

[4] = system: wild-type and variant SNAP-GIPR; test: Single-concentration GIP cAMP response by HTRF in INS-1 cells; conditions: Fig S3E, mean
Method: as §2

[5] = system: wild-type and variant SNAP-GIPR; test: Constitutive and agonist-mediated internalization, reversible SNAP-tag labelling, AD293 cells; set-up: key to Internalisation, Vehicle / Internalisation, +GIP / Internalisation, GIP-only: % internalization: residual fluorescence after Mesna vs pre-Mesna; Surface expression: unit not given here; conditions: Mean
Method: as §1

[6] = system: wild-type and variant SNAP-GIPR; test: Surface SNAP-GIPR expression (SNAP-tag labelling) in INS-1 cells; conditions: Fig 4G; Mean
Method: (§3) Twenty-four hours before the experiment, AD293 or INS-1 cells were reverse transfected with GIPR variant or wild-type plasmids using Lipofectamine 2000 in 96-well, clear-bottom, black microplates precoated with poly-D-lysine. All variants were tested in parallel on each occasion to control for transfection efficiency differences between experiments. Cells were then labeled using the cell-impermeant probe SNAP-Surface Alexa Fluor 647 (500 nM, New England Biolabs, USA) for 10 min at room temperature to label only surface GIPR. […] Several fields of view (FOVs) were acquired within each well using a 20X, 0.75–numerical aperture (NA) air objective. Surface GIPR fluorescence was quantified after flat-field correction using BaSiC ([72]) and segmenting using Phantast ([73]), which generates a mask based on the phase contrast images to demarcate cell versus noncell. Wide-field imaging of the surface-specific labeling achieved by SNAP-Surface probes means that surface expression can be established from whole-cell fluorescence, after subtracting nonspecific fluorescence from a separate well containing nontransfected cells processed in parallel from the same experiment. Data were normalized by dividing by the average specific signal across each experiment, or by the wild-type value, as indicated in the figure legends.

[7] = system: wild-type and variant SNAP-GIPR; test: Surface SNAP-GIPR expression (SNAP-tag labelling) in AD293 cells; conditions: for AD293 Surface: Fig S3E, mean; for Surface SNAP-GIPR expression: sheet Fig 1C;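 as to all read-outs here: scaled to the experimental average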
Method: as §3

B1: R131S (protein, UniProt P48546 22-466, looked up, variant R131S)
Gastric inhibitory …: RAETGSKGQTAGELYQRWERYRRECQETLAAAEPPSGLACNGSFDMYVCWDYAAPNATARASCPWYLPWHHHVAAGFVLRQCGSDGQWGLWRDHTQCENPEKNEAFLDQSLILERLQVMYTVGYSLSLATLLLALLILSLFRRLHCTRNYIHINLFTSFMLRAAAILSRDRLLPRPGPYLGDQALALWNQALAACRTAQIVTQYCVGANYTWLLVEGVYLHSLLVLVGGSEEGHFRYYLLLGWGAPALFVIPWVIVRYLYENTQCWERNEVKAIWWIIRTPILMTILINFLIFIRILGILLSKLRTRQMRCRDYRLRLARSTLTLVPLLGVHEVVFAPVTEEQARGALRFAKLGFEIFLSSFQGFLVSVLYCFINKEVQSEIRRGWHHCRLRRSLGEEQRQLPERAFRALPSGSGPGEVPTSRGLSSGTLPGPGNEASRELESYC
- AD293 100 pM cADDis ([1]; AD293, 100 pM): 25.6916
- AD293 100 nM cADDis ([1]; AD293, 100 nM): 36.03
- +GIP internalisation (100 nM) ([2]; Fig 4G, GIP 100 nM): 0.7402
- GIP-specific internalisation (100 nM) ([2]; Fig 4G, GIP 100 nM): 0.1769
- Constitutive internalisation (100 nM) ([2]; Fig 4G): 0.5633
- Internalisation, +GIP ([2]; Fig S4C, INS-1): 45.9917
- Internalisation, GIP-only ([2]; Fig S4C, INS-1): 10.9733
- Internalisation, Vehicle ([2]; Fig S4C, INS-1): 35.0183
- AD293 100 pM HTRF ([3]; AD293, 100 pM): 0.4337
- AD293 100 nM HTRF ([3]; AD293, 100 nM): 1.306
- INS-1 cAMP (100 nM) [4]: 1.548
- +GIP internalisation (100 nM) ([5]; Fig 4E, GIP 100 nM): 0.7235
- GIP-specific internalisation (100 nM) ([5]; Fig 4E, GIP 100 nM): 0.2116
- Constitutive internalisation (100 nM) ([5]; Fig 4E): 0.5118
- Surface expression ([5]; Fig 4E): 1.308
- Internalisation, +GIP ([5]; Fig S4C, AD293): 55.4494
- Internalisation, GIP-only ([5]; Fig S4C, AD293): 16.1484
- Internalisation, Vehicle ([5]; Fig S4C, AD293): 39.3009
- Surface expression [6]: 1.447
- AD293 Surface ([7]; column repeated, paired with cAMP 100 nM): 1.362
- AD293 Surface ([7]; paired with cAMP 100 pM): 1.362
- Surface SNAP-GIPR expression ([7]; replicate 1): 0.7106
- Surface SNAP-GIPR expression ([7]; replicate 2): 2.058
- Surface SNAP-GIPR expression ([7]; replicate 3): 0.7777
- Surface SNAP-GIPR expression ([7]; replicate 4): 1.042
- Surface SNAP-GIPR expression ([7]; replicate 5): 1.12
- Surface SNAP-GIPR expression ([7]; replicate 6): 1.654
- Surface SNAP-GIPR expression ([7]; replicate 7): 1.227
- Surface SNAP-GIPR expression ([7]; replicate 8): 1.559
- Surface SNAP-GIPR expression ([7]; replicate 9): 1.551
- Surface SNAP-GIPR expression ([7]; replicate 10): 1.359
- Surface SNAP-GIPR expression ([7]; replicate 11): 1.194
- Surface SNAP-GIPR expression ([7]; replicate 12): 1.256
- Surface SNAP-GIPR expression ([7]; replicate 13): 1.318
- Surface SNAP-GIPR expression ([7]; replicate 14): 0.9106
- Surface SNAP-GIPR expression ([7]; replicate 15): 1.304
- Surface SNAP-GIPR expression ([7]; replicate 16): 1.372
- Surface SNAP-GIPR expression ([7]; replicate 17): 1.574
- Surface SNAP-GIPR expression ([7]; replicate 18): 1.448
- Surface SNAP-GIPR expression ([7]; replicate 19): 1.382
- Surface SNAP-GIPR expression ([7]; replicate 20): 1.357
- Surface SNAP-GIPR expression ([7]; replicate 21): 1.273
- Surface SNAP-GIPR expression ([7]; replicate 22): 1.627
- Surface SNAP-GIPR expression ([7]; replicate 23): 1.424
- Surface SNAP-GIPR expression ([7]; replicate 24): 1.463
- Surface SNAP-GIPR expression ([7]; replicate 25): 1.446
- Surface SNAP-GIPR expression ([7]; replicate 26): 1.405
- Surface SNAP-GIPR expression ([7]; replicate 27): 1.475
- Surface SNAP-GIPR expression ([7]; replicate 28): 1.453
- Surface SNAP-GIPR expression ([7]; replicate 29): 1.54
- Surface SNAP-GIPR expression ([7]; replicate 30): 1.363
- Surface SNAP-GIPR expression ([7]; replicate 31): 1.317
- Surface SNAP-GIPR expression ([7]; replicate 32): 1.55
- Surface SNAP-GIPR expression ([7]; replicate 33): 1.587
- Surface SNAP-GIPR expression ([7]; replicate 34): 1.477
- Surface SNAP-GIPR expression ([7]; replicate 35): 1.359
- Surface SNAP-GIPR expression ([7]; replicate 36): 1.207
- Surface SNAP-GIPR expression ([7]; replicate 37): 1.251
- Surface SNAP-GIPR expression ([7]; replicate 38): 1.505
- Surface SNAP-GIPR expression ([7]; replicate 39): 1.263
- Surface SNAP-GIPR expression ([7]; replicate 40): 1.363
- Surface SNAP-GIPR expression ([7]; replicate 41): 1.33
